# Reference: PMC7901972
# Biological target: thrombin
substance,measurement,value
recombinant AsKunitz (natural protein),"inhibition of the enzymatic activity of thrombin on a chromogenic substrate (Vmax against the reaction without inhibitor), IC50",650 nM
